From patent US20250145697A1 (WASHINGTON UNIVERSITY, published 2025)

T1: murine ApoE (mouse, UniProt P08226 19-311)
T1 sequence (looked up): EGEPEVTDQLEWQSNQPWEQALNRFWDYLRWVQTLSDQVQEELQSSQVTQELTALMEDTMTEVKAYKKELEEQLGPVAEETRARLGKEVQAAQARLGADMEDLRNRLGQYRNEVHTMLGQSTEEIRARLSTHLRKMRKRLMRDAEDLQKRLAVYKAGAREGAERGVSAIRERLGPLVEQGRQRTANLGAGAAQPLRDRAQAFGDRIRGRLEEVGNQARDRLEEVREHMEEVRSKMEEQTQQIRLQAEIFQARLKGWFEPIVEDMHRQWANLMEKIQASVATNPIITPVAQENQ

B1: HJ156 (antibody, V domains shown)
VH: QVQLQQSGPELVKPGASVKISCKASGYIFTDYYINWVKRRPGQGLEWIGWIFPGSGVSYYNEQFKGKATLTVDKPSNTAYIFLSRLTSEDSAVYFCARYYSSSPFAYWGQGTLVTVSA
VL: DVLMTQTPLSLPVSLGDQASISCRSSQNIIHSNGNTYLEWFLQRPGQSPELLIYKVSNRFSGVPDRFSGSGSGTDFTLKISRVEAEDLGVYYCFQGSHVPYTFGGGTKLEIKR
notes: murine monoclonal antibody from hybridoma; also called HJ156B (biotinylated)
B2: HJ154 (antibody, V domains shown)
VH: QVQLQQPGTEFVMSGASVMLSCKASGYIFTNYWLHWVKQRPGHGLEWIGEIDPSDSYSICNDNFKGKSTLTVDKSSSTAYMQLSSLTSEDSAVYYCAGSLGRVGLAYWGQGTLVTVST
VL: QIVLTQSPAIMSASPGEKVTMSCSASSSVSNMYWYQQKPGSSPKSWIYRTSNLASGVPARFSGSGSGTSYSLTISNMEAEDAATYYCQHYQNYPLTFGAGTKLELKR
notes: murine monoclonal antibody from hybridoma; also called HJ154B (biotinylated)

Experiments:
[1] = target: T2, heat-induced aggregates of ApoE4 (human, UniProt P02649 19-317); assay: ELISA: total ApoE4 incubated at 40 C for 24 h loaded on the plate, HJ156 titrated, OD650
T2 construct: mature; aggregated state of the recombinant protein; also called ApoE4 incubated at 40 C for 24 hr; heat-treated ApoE4
Target sequence in this assay (P02649 19-317 C130R): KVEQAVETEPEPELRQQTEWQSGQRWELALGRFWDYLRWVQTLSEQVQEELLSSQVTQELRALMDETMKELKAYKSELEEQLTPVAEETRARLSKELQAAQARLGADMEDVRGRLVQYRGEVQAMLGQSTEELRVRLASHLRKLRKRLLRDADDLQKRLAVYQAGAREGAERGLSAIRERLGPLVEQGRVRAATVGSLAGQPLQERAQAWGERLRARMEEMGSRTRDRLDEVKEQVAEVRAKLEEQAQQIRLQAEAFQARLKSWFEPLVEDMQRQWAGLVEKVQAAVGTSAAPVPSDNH

[2] = target: T3, recombinant alipidated human ApoE3 (human, UniProt P02649 19-317); assay: ELISA, plate coated with 0.5 ug/ml recombinant apoE3, HRP goat anti-mouse detection, OD450
T3 construct: mature; full length recombinant protein made in E. coli or bought
Description: (§1) ELISA plates were coated with 0.5 μg/ml of recombinant apoE2 (square), apoE3 (open circle), or apoE4 (closed circle). Then different concentrations of (A) HJ151, (B) HJ153, (C) HJ154, or (D) HJ156 were loaded on the plates. Horse-radish peroxidase labeled goat anti-mouse secondary antibodies were used to detect binding. […] HJ151 is specific for ApoE4 and HJ156 binds only ApoE3 and ApoE4. FIG. 5E-H are graphs depicting surface plasmon resonance profiles for various antibodies. Anti-ApoE antibodies were serially diluted 3-fold (starting at 100 nM for HJ153 (E), and 1000 nM for HJ151 (F), and […] (G)) for detection of binding to biotinylated-recombinant apoE4 captured on a streptavidin chip. Samples were injected at a flow rate of 30 μl/minute. (H) Apparent KD values of HJ151, HJ153 and HJ156 were calculated based on the SPR experiment.
(§2) ELISA plates were coated with 0.5 μg/ml of recombinant apoE2, apoE3, or apoE4. Then different concentrations of HJ151 (FIG. 5A), HJ153 (FIG. 5B), HJ154 (FIG. 5C), or HJ156 (FIG. 5D) were loaded on the plates. Horse-radish peroxidase labeled goat anti-mouse secondary antibodies were used to detect binding. […] HJ151 is specific for ApoE4 and HJ156 binds only ApoE3 and ApoE4. Surface plasmon resonance profiles for various antibodies was also performed.

[3] = target: T2, heat-induced aggregates of ApoE4; assay: ELISA: pellet fraction of ApoE4 incubated at 40 C for 24 h loaded at the same concentration on the plate, HJ156 titrated, OD650
murine ApoE = target: T1, murine ApoE; assay: Western blot of mouse brain lysates
Source text: Brain lysates from apoE KO mice or mice expressing human apoE3, human apoE4 or murine apoE were immunoblotted with HJ151, HJ152, HJ153, and HJ154. A commercial apoE antibody GA-50 was used as a positive control.

[4] = target: T4, recombinant alipidated human ApoE2 (human, UniProt P02649 19-317); assay: ELISA, plate coated with 0.5 ug/ml recombinant apoE2, HRP goat anti-mouse detection, OD450
T4 construct: mature; full length recombinant protein made in E. coli or bought
Description: as §1, §2

[5] = target: T4, recombinant alipidated human ApoE2; assay: ELISA: untreated ApoE2 coated at 0.5 ug/ml, antibody titrated, HRP goat anti-mouse IgG, OD650
Description: (§3) The aggregated ApoE was induced by incubating ApoE at 1 mg/ml concentration at 40° C. for 24 hours. The aggregates then were recovered in the pellet fraction following ultracentrifugation at 186,000 g for 1 hour. For ELISA, the untreated ApoE or heat-induced aggregates of ApoE were coated directly to ELISA plates at 0.5 μg/ml overnight at 4° C. After three washes with PBS, the wells were blocked with 1% BSA-PBS for 1 hour at room temperature with shaking at 500 rpm. The blocked wells were washed once with PBS and subsequently loaded with antibodies at serial concentrations (starting at 100 nM with 5-fold dilutions thereafter). Bound antibodies were detected with HRP-labeled goat anti-mouse IgG (Jackson Immunoresearch) and visualized with TMB substrate at OD₆₅₀ (reaction stopped with BioFX stop solution).
Target sequence in this assay (P02649 19-317 R176C): as the sequence (P02649 19-317 C130R) above, with R112C, R158C counted along it

[6] = target: T3, recombinant alipidated human ApoE3; assay: ELISA: untreated ApoE3 coated at 0.5 ug/ml, antibody titrated, HRP goat anti-mouse IgG, OD650
Description: as §3
Target sequence in this assay (P02649 19-317): as the sequence (P02649 19-317 C130R) above, with R112C counted along it

[7] = target: T5, heat-induced aggregates of ApoE2 (human, UniProt P02649 19-317); assay: ELISA: pellet of heat-aggregated ApoE2 coated at 0.5 ug/ml, antibody titrated, HRP goat anti-mouse IgG, OD650
T5 construct: mature; aggregated state of the recombinant protein; also called heat treated ApoE2
T5 sequence (P02649 19-317 R176C): as the sequence (P02649 19-317 C130R) above, with R112C, R158C counted along it
Description: as §3

| Binder | EC50 (read off the curve) [1] | EC50 (read off the curve) [2] | EC50 (read off the curve) [3] | binding result (murine ApoE) | EC50 (read off the curve) [4] | EC50 (read off the curve) [5] | EC50 (read off the curve) [6] | EC50 (read off the curve) [7] |
| --- | --- | --- | --- | --- | --- | --- | --- | --- |
| B1 | ~0.1 nM | ~0.9 nM | ~0.1 nM |  |  |  |  |  |
| B2 |  |  |  | no binding | ~0.3 nM | ~0.2 nM | ~0.5 nM | 0.16 to 0.2 nM |
